One data set relates to GST-Bicc1 WT. The data set is described as follows: GST pull-down, fluorescent RNA. The following applies: 100 pmol labeled RNA with 5-10 pmol GST-Bicc1 on glutathione beads, 1 h at 4 C, then HEK293T extract (20 mM Tris-HCl pH 7.4, 2.5 mM MgCl2, 100 mM NaCl, 5% …).
A further data set has as its system GST-Bicc1 mutD. The data set is described as follows: GST pull-down, fluorescent RNA. The following applies: after incubation with ANKS3-Flag HEK293T extract; 100 pmol labeled RNA with 5-10 pmol GST-Bicc1 on glutathione beads, 1 h at 4 C; then HEK293T extract (20 mM Tris-HCl pH 7.4, 2.5 mM MgCl2, 100 mM NaCl, 5% …).
In data set [1] the target is GST-Bicc1 (full-length, WT) (UniProt Q99MQ1). As to the kind of experiment: pull-down; full-length GST-Bicc1 (WT or mutD) on glutathione-Sepharose 4B beads, no RNA; HEK293T cell extracts with full-length or truncated ANKS3-Flag; 2 h at 4°C; western blot. In general terms: Immunoblotting shows a protein as a band on a membrane.
Data set [2] deals with GST-Bicc1-KH (complete KH tandem repeat of Bicc1 fused to GST). The data set is described as follows: pull-down; GST fusions of Bicc1 fragments (KH tandem repeat, KH1, KH2, IVS) on glutathione-Sepharose 4B beads; HEK293T cell extracts with ANKS3-Flag (full-length or ΔNter), without v5-ANKS6; 2 h at 4°C; western blot.

UniProt Q99MQ1, sequence (Q99MQ1 whole entry, the tested form may be a part): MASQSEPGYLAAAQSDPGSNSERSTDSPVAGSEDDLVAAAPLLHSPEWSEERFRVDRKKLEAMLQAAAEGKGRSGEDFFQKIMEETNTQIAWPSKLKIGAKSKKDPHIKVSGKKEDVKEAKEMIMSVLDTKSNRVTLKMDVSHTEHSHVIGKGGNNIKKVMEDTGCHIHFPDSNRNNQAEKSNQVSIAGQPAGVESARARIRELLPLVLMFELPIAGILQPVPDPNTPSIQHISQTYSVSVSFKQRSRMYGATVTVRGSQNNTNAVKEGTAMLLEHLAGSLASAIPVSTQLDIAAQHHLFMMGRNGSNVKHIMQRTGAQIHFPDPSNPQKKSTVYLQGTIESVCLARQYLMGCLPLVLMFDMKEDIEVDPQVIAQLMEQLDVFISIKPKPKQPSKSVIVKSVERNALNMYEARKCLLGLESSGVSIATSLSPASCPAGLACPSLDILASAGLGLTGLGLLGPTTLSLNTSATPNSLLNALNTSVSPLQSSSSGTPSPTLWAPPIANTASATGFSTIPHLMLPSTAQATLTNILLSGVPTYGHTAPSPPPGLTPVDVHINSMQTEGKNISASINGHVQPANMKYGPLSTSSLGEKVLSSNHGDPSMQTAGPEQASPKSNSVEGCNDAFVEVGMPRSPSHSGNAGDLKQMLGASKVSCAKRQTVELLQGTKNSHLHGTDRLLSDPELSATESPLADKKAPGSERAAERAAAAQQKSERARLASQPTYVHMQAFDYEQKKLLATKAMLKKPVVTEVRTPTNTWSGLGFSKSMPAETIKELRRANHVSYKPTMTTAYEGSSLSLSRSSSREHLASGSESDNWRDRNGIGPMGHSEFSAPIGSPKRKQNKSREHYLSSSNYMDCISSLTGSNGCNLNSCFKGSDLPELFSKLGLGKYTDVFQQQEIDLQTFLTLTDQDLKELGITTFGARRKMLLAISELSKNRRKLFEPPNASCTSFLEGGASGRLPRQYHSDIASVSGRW

The molecule Dand5-3'UTR 226-270 RNA showed a binding signal (% (relative to 66-110 RNA, inferred)) in the data set with GST-Bicc1 WT (with ANKS3-Flag HEK293T extract) of 17.2.
For the molecule Dand5-3'UTR 66-110 RNA, in the data set with GST-Bicc1 mutD, the binding signal (% of RNA bound by WT GST-Bicc1) came to 231. Further, the binding signal (% (reference)) in the data set on GST-Bicc1 WT amounted to 100.
As for “ANKS3 ΔSAM-Flag (from UniProt Q6ZW76 1-656) (domain or fragment)”, in data set [1], the percent decrease of binding against full-length ANKS3-Flag was 60%.

B1: ANKS3 ΔNter-Flag (domain or fragment)
chain: MMDTYSPSLPKSLYRSPEKYEDLSSSDESCPAPQRQRPCRKKGVSIHEGPRALARITGIGLGGRAPRPRYEQAPPRGYVTFNSSGENPLEEEGLCCRDVTSPINERDVESSSSSSSREEHAFCANLGPVQSSSSSEGLARAQGLSSEASVESNEDSDHACKSSARKQAKSYMKTKNPDSQWPPRAATDREGFLAESSPQTQRAPYSGPQDLAALLEQIGCLKYLQVFEEQDVDLRIFLTLTESDLKEIGITLFGPKRKMTSAIARWHSSARPPGDALELAYADRLEAEMQELAIQLHKRCEEVEATRGQVCQEQELRAVVESCLLEQDRAREDLQARLRETWALARDAALVLDQLRACQAELSSRVRQDQPPGAATLGLAVPPADSKGWQASLQAMSLPELSGALEDRVREMGQALCLVTQSLEKLQVLNGKKWRET
For the molecule B1, the fold change of binding against full-length ANKS3 in data set [2] came to 8 fold.

(Values after paper PMC10513324.)
